Reference: US20180369374A1 (published 2018)

B1: 9D9 IgG2a antibody (9D9 VH:mIgG2a (IgG2a^a allele) plus 9D9 VL:mIgGk), mRNA-encoded (antibody)
heavy: EAKLQESGPVLVKPGASVKMSCKASGYTFTDYYMNWVKQSHGKSLEWIGVINPYNGDTSYNQKFKGKATLTVDKSSSTAYMELNSLTSEDSAVYYCARYYGSWFAYWGQGTLITVSTAKTTAPSVYPLAPVCGDTTGSSVTLGCLVKGYFPEPVTLTWNSGSLSSGVHTFPAVLQSDLYTLSSSVTVTSSTWPSQSITCNVAHPASSTKVDKKIEPRGPTIKPCPPCKCPAPNLLGGPSVFIFPPKIKDVLMISLSPIVTCVVVDVSEDDPDVQISWFVNNVEVHTAQTQTHREDYNSTLRVVSALPIQHQDWMSGKEFKCKVNNKDLPAPIERTISKPKGSVRAPQVYVLPPPEEEMTKKQVTLTCMVTDFMPEDIYVEWTNNGKTELNYKNTEPVLDSDGSYFMYSKLRVEKKNWVERNSYSCSVVHEGLHNHHTTKSFSRTPGK
light: DIVMTQTTLSLPVSLGDQASISCRSSQSIVHSNGNTYLEWYLQKPGQSPKLLIYKVSNRFSGVPDRFSGSGSGTDFTLKISRVEAEDLGVYYCFQGSHVPYTFGGGTKLEIKRADAAPTVSIFPPSSEQLTSGGASVVCFLNNFYPKDINVKWKIDGSERQNGVLNSWTDQDSKDSTYSMSSTLTLTKDEYERHNSYTCEATHKTSTSPIVKSFNRNEC
notes: Full heavy and light chains expressed from mRNA in HeLa cells, tested as cell supernatant; The entries are whole ORFs and may include a signal peptide; also called HC-2Aa:LC; 9D9 2a
B2: 9D9 IgG2b antibody (9D9 VH:mIgG2b plus 9D9 VL:mIgGk), mRNA-encoded (antibody)
heavy: EAKLQESGPVLVKPGASVKMSCKASGYTFTDYYMNWVKQSHGKSLEWIGVINPYNGDTSYNQKFKGKATLTVDKSSSTAYMELNSLTSEDSAVYYCARYYGSWFAYWGQGTLITVSTAKTTPPSVYPLAPGCGDTTGSSVTLGCLVKGYFPESVTVTWNSGSLSSSVHTFPALLQSGLYTMSSSVTVPSSTWPSQTVTCSVAHPASSTTVDKKLEPSGPISTINPCPPCKECHKCPAPNLEGGPSVFIFPPNIKDVLMISLTPKVTCVVVDVSEDDPDVQISWFVNNVEVHTAQTQTHREDYNSTIRVVSTLPIQHQDWMSGKEFKCKVNNKDLPSPIERTISKIKGLVRAPQVYILPPPAEQLSRKDVSLTCLVVGFNPGDISVEWTSNGHTEENYKDTAPVLDSDGSYFIYSKLNMKTSKWEKTDSFSCNVRHEGLKNYYLKKTISRSPGK
light: B1 light
notes: Full heavy and light chains expressed from mRNA in HeLa cells, tested as cell supernatant; The entries are whole ORFs and may include a signal peptide; also called HC-2B:LC; 9D9 2b
B3: murine OX40L polypeptide expressed from mOX40L_miR122 on B16F10 cells (ligand)
chain: MEGEGVQPLDENLENGSRPRFKWKKTLRLVVSGIKGAGMLLCFIYVCLQLSSSPAKDPPIQRLRGAVTRCEDGQLFISSYKNEYQTMEVQNNSVVIKCDGLYIIYLKGSFFQEVKIDLHFREDHNPISIPMLNDGRRIVFTVVASLAFKDKVYLTVNAPDTLCEHLQINDGELIVVQLTPGYCAPEGSYHSTVNQVPL

How the values were obtained:
[1] = biological target: T1, mCTLA-4-His (Life Technologies) (mouse, UniProt P09793 36-162, limits assumed); test: ELISA, HeLa supernatant on mCTLA-4-His-coated plates, HRP-goat anti-mouse IgG Fc detection
T1 construct: Bought reagent coated on ELISA plates; also called CTLA-4-coated plates; not shown: His tag
Experimental: The following mRNAs encoding anti-CTLA-4 antibody heavy and light chains (HC and LC mRNAs) were designed and assayed for expression by measuring both CTLA-4-bound antibody and total IgG produced (FIG. 1): (1) 9D9 VH:mIgG2a (IgG2a^a allele) plus 9D9 VL:mIgGk; and (2) 9D9 VH:mIgG2b plus 9D9 VL:mIgGk. HeLa cells were transfected in 6-well plates with mRNA formulated in Lipofectamine 2000. Cell supernatants were harvested at 18 hours post transfection. Supernatants were assayed for binding to CTLA-4-coated plates (mCTLA-4-His (Life Technologies)) and detection was with HRP-Goat anti-mouse IgG Fc, 1:10000 (JIR). Purified 9D9 antibody (BioXcell) was used for the standard curve in the CTLA-4-binding ELISA. The Mouse IgG total ELISA Ready-SET-Go® assay (eBioscience) was used for quantitating total mouse IgG, with a mouse IgG internal standard.

[2] = biological target: T2, OX40R on mouse CD4+ T-cells (mouse, UniProt P47741 20-272); test: cell-based or functional assay
T2 sequence (looked up): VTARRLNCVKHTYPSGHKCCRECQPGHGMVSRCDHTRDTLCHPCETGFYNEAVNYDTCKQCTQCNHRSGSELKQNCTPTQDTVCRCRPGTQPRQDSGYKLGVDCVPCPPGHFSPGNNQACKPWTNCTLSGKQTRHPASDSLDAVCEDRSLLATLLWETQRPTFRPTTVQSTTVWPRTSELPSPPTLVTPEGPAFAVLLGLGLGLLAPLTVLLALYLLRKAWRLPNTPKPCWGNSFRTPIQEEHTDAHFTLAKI

Binder	binding result [1]	mouse IL-2 production by CD4+ T-cells co-cultured with OX40L-expressing B16F10 cells (IL-2 ELISA), against mock-treated or non-translated mRNA control [2]
B1	binds	–
B2	binds	–
B3	–	~2 fold
